Results on 35 variants are retold here after the supplement of paper PMC7125110.

± gives the standard error. Variants at the floor of the assay were thinned out.

The chains are these.
B1: glmS ribozyme (parent)
chain: AUAAAAGCGCCAGAACUACAGAAAUGUAGUUGACGAGGAGGAGGUUUAUCGAAUUUUCGGCGGAUGCCUCCAAA

Common to all, as to settings: with glucosamine-6-phosphate
In data set [1] the parent is B1. Kind of data set: self-cleavage kobs at 640 uM GlcN6P; higher = faster cleavage; RNA array. The gist of the method:
(§1)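 Tiles bearing barcoded ribozyme variants, transcribed in situ by E. coli RNA polymerase on sequenced MiSeq chips, were imaged over ~14 h at 37 °C using a hybridised Cy3 probe. Glucosamine-6-phosphate was supplied at 40 μM to 10 mM in HEPES/KCl/Mg(OAc)2 buffer. kobs came from one- or two-exponential decay fits to normalised per-tile medians, and weighted Michaelis–Menten fits then provided kcat and KM.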

Data set [2] covers variants of B1. The data set is described as follows: self-cleavage kobs at 10000 uM GlcN6P; higher = faster cleavage; RNA array. The gist of the method:
as §1

In data set [3] the parent is B1. The data set is described as follows: self-cleavage kobs at 2500 uM GlcN6P; higher = faster cleavage; RNA array. The gist of the method:
as §1

C50U C67A: the “self-cleavage kobs at 640 uM GlcN6P” value with glucosamine-6-phosphate [1] was found to be 6.32e-05 ± 2.1e-05 s⁻¹.

For the variant A14U C61A G66A, in the data set with glucosamine-6-phosphate [1], the “self-cleavage kobs at 640 uM GlcN6P” value was less than 1e-05 s⁻¹.

As for U57G C67G, the “self-cleavage kobs at 640 uM GlcN6P” value in the data set with glucosamine-6-phosphate [1] was found to be 0.000478 ± 0.00018 s⁻¹. Moreover, in the data set with glucosamine-6-phosphate [2], the “self-cleavage kobs at 10000 uM GlcN6P” value was found to be 2.33e-05 ± 1e-05 s⁻¹.

On to C16G C34G A42C G43A, for which the “self-cleavage kobs at 640 uM GlcN6P” value with glucosamine-6-phosphate [1] was less than 1e-05 s⁻¹. Consider C34U C50A U69C, for which the “self-cleavage kobs at 2500 uM GlcN6P” value in the data set with glucosamine-6-phosphate [3] came out at 0.000135 ± 6.7e-05 s⁻¹. Turning to C16A C70U C71A, the “self-cleavage kobs at 640 uM GlcN6P” value in the data set with glucosamine-6-phosphate [1] turned out to be 0.00012 ± 4.3e-05 s⁻¹. Turning to A14U G29U U56G, the “self-cleavage kobs at 640 uM GlcN6P” value in the data set with glucosamine-6-phosphate [1] turned out to be 0.000178 ± 4.1e-05 s⁻¹. Moreover, the “self-cleavage kobs at 2500 uM GlcN6P” value with glucosamine-6-phosphate [3] was determined as 0.000206 ± 7.4e-05 s⁻¹. For the variant C11U C67A C71U, in the data set with glucosamine-6-phosphate [1], the “self-cleavage kobs at 640 uM GlcN6P” value was determined as 4.57e-05 ± 1.8e-05 s⁻¹. The “self-cleavage kobs at 2500 uM GlcN6P” value in the data set with glucosamine-6-phosphate [3] is 5.18e-05 ± 1.8e-05 s⁻¹. Take A14C C61U C68G: the “self-cleavage kobs at 640 uM GlcN6P” value in the data set with glucosamine-6-phosphate [1] is 0.0001 ± 3.3e-05 s⁻¹. On to A52G C61G U69A, for which, in the data set with glucosamine-6-phosphate [1], the “self-cleavage kobs at 640 uM GlcN6P” value is 0.000109 ± 4.4e-05 s⁻¹. Moreover, the “self-cleavage kobs at 2500 uM GlcN6P” value in the data set with glucosamine-6-phosphate [3] was found to be 5.25e-05 ± 2.2e-05 s⁻¹. Take C10A U47G: the “self-cleavage kobs at 640 uM GlcN6P” value with glucosamine-6-phosphate [1] was less than 1e-05 s⁻¹. Moreover, in the data set with glucosamine-6-phosphate [3], the “self-cleavage kobs at 2500 uM GlcN6P” value is less than 1e-05 s⁻¹. For the variant A36U G43A, the “self-cleavage kobs at 640 uM GlcN6P” value in the data set with glucosamine-6-phosphate [1] is less than 1e-05 s⁻¹. The “self-cleavage kobs at 2500 uM GlcN6P” value with glucosamine-6-phosphate [3] is less than 1e-05 s⁻¹. For the same variant, the “self-cleavage kobs at 10000 uM GlcN6P” value in the data set with glucosamine-6-phosphate [2] was less than 1e-05 s⁻¹. Regarding A6C C16G G32U A33G G38U, the “self-cleavage kobs at 640 uM GlcN6P” value with glucosamine-6-phosphate [1] was less than 1e-05 s⁻¹. Further, in the data set with glucosamine-6-phosphate [2], the “self-cleavage kobs at 10000 uM GlcN6P” value is less than 1e-05 s⁻¹.

Regarding C16U U55A C68U, the “self-cleavage kobs at 640 uM GlcN6P” value with glucosamine-6-phosphate [1] was determined as 0.000364 ± 0.00011 s⁻¹. The “self-cleavage kobs at 2500 uM GlcN6P” value with glucosamine-6-phosphate [3] was found to be 0.00062 ± 0.00021 s⁻¹. As for C10A C16A C68A, the “self-cleavage kobs at 640 uM GlcN6P” value in the data set with glucosamine-6-phosphate [1] came out at 0.000126 ± 4.7e-05 s⁻¹. In the case of G13U U31G A48G A52U, the “self-cleavage kobs at 640 uM GlcN6P” value with glucosamine-6-phosphate [1] is less than 1e-05 s⁻¹. With G37A C50U G51U, in the data set with glucosamine-6-phosphate [1], the “self-cleavage kobs at 640 uM GlcN6P” value is less than 1e-05 s⁻¹. In addition, in the data set with glucosamine-6-phosphate [3], the “self-cleavage kobs at 2500 uM GlcN6P” value was less than 1e-05 s⁻¹. As for A15G G66U C71U, the “self-cleavage kobs at 640 uM GlcN6P” value with glucosamine-6-phosphate [1] stood at 0.000559 ± 0.00011 s⁻¹. Besides, the “self-cleavage kobs at 2500 uM GlcN6P” value with glucosamine-6-phosphate [3] was 0.00142 ± 0.00041 s⁻¹. C11U A12C U31G G32U U57G: the “self-cleavage kobs at 640 uM GlcN6P” value in the data set with glucosamine-6-phosphate [1] was less than 1e-05 s⁻¹.

For U55A G63U C70G, the “self-cleavage kobs at 640 uM GlcN6P” value with glucosamine-6-phosphate [1] amounted to 6.74e-05 ± 2.6e-05 s⁻¹. In the case of A12U A15C C71A, the “self-cleavage kobs at 640 uM GlcN6P” value with glucosamine-6-phosphate [1] was 0.000661 ± 0.00015 s⁻¹. For the same variant, the “self-cleavage kobs at 2500 uM GlcN6P” value with glucosamine-6-phosphate [3] stood at 0.0015 ± 0.00053 s⁻¹.

As to A42C C61U C68G C71U, the “self-cleavage kobs at 640 uM GlcN6P” value with glucosamine-6-phosphate [1] is less than 1e-05 s⁻¹.

On to C10A U47A C70A, for which the “self-cleavage kobs at 2500 uM GlcN6P” value in the data set with glucosamine-6-phosphate [3] was 0.000334 ± 0.00015 s⁻¹. In the case of G7U U47G A53U, the “self-cleavage kobs at 640 uM GlcN6P” value with glucosamine-6-phosphate [1] was less than 1e-05 s⁻¹. The “self-cleavage kobs at 2500 uM GlcN6P” value with glucosamine-6-phosphate [3] is less than 1e-05 s⁻¹. Regarding C50A A52C C61A C68U, the “self-cleavage kobs at 640 uM GlcN6P” value in the data set with glucosamine-6-phosphate [1] amounted to 0.000706 ± 0.00019 s⁻¹. For A6G A33G A42U G60U, in the data set with glucosamine-6-phosphate [3], the “self-cleavage kobs at 2500 uM GlcN6P” value is less than 1e-05 s⁻¹. Turning to G9C C70G, the “self-cleavage kobs at 640 uM GlcN6P” value in the data set with glucosamine-6-phosphate [1] was less than 1e-05 s⁻¹. The “self-cleavage kobs at 10000 uM GlcN6P” value with glucosamine-6-phosphate [2] is less than 1e-05 s⁻¹. For the variant G9U G32C C34G C58U C68G, the “self-cleavage kobs at 640 uM GlcN6P” value with glucosamine-6-phosphate [1] was 0.000182 ± 7.9e-05 s⁻¹. Consider G37A U55C U56G, for which the “self-cleavage kobs at 640 uM GlcN6P” value in the data set with glucosamine-6-phosphate [1] turned out to be 0.000171 ± 5.1e-05 s⁻¹. Consider C10A U54G U65C, for which, in the data set with glucosamine-6-phosphate [1], the “self-cleavage kobs at 640 uM GlcN6P” value is less than 1e-05 s⁻¹. G7U U49G G51C A64C G66C: the “self-cleavage kobs at 640 uM GlcN6P” value with glucosamine-6-phosphate [1] was less than 1e-05 s⁻¹. Further, the “self-cleavage kobs at 2500 uM GlcN6P” value with glucosamine-6-phosphate [3] is less than 1e-05 s⁻¹. On to A6G A12G A33U A36C, for which the “self-cleavage kobs at 2500 uM GlcN6P” value in the data set with glucosamine-6-phosphate [3] was less than 1e-05 s⁻¹. With A14G U69A C70A, in the data set with glucosamine-6-phosphate [1], the “self-cleavage kobs at 640 uM GlcN6P” value was found to be 5.74e-05 ± 2.2e-05 s⁻¹. In addition, the “self-cleavage kobs at 2500 uM GlcN6P” value with glucosamine-6-phosphate [3] amounted to 8.42e-05 ± 1.9e-05 s⁻¹. For U31C C34U U69C, in the data set with glucosamine-6-phosphate [3], the “self-cleavage kobs at 2500 uM GlcN6P” value was less than 1e-05 s⁻¹. For the variant C11A G38U A39U G60A, in the data set with glucosamine-6-phosphate [1], the “self-cleavage kobs at 640 uM GlcN6P” value is less than 1e-05 s⁻¹. For the same variant, the “self-cleavage kobs at 2500 uM GlcN6P” value with glucosamine-6-phosphate [3] was less than 1e-05 s⁻¹.
